Earlier results on one substance are cited in paper PMC4451881.

By Kd is commonly meant the equilibrium constant for the complex coming apart.

The target of the series is CK2beta (Homo sapiens) (UniProt P67870).
CK2beta (Homo sapiens), sequence (P67870 2-215): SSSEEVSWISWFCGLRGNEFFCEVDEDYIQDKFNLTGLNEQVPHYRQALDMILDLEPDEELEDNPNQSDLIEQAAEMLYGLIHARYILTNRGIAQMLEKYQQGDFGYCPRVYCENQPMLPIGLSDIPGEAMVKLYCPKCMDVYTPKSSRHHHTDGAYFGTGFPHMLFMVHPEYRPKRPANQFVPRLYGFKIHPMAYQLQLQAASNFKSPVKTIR

CK2alpha, sequence (P68400 whole entry): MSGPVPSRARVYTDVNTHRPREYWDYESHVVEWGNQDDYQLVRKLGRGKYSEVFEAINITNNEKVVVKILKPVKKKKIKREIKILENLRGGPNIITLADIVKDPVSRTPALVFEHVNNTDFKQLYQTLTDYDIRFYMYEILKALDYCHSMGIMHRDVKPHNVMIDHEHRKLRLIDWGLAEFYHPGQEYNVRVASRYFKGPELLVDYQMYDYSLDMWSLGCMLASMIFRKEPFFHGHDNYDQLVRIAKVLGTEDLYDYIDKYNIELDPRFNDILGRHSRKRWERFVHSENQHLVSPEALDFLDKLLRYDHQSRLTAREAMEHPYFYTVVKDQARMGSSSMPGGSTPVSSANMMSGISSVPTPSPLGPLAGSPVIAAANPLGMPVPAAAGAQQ

Turning to CK2alpha (from UniProt P68400), the Kd was 4 nM.
